Patent publication US7772181B2, “Personal care compositions comprising modified variant Bowman Birk Protease Inhibitors” (Danisco US Inc., priority 2008, dated 2010)
Where a chain is given by its changes, count along the chain named. Names and notes keep the numbering of the source. Marks after values point to notes of the source that are not given here.

Experiments:
[1] = target: T1, bovine pancreatic trypsin (Bos taurus, UniProt P00760); assay: Shake flask screen: trypsin inhibition after growth, 2-mercaptoethanol activation and acid/heat treatment; type: biochemical; settings: for BBIt-AV yield after acid/heat treatment relative to unmodified BBIt-AV: activated with 2-mercaptoethanol
T1 construct: purchased Worthington (Worthington Biochemical Corp.)
T1 sequence (P00760 24-246): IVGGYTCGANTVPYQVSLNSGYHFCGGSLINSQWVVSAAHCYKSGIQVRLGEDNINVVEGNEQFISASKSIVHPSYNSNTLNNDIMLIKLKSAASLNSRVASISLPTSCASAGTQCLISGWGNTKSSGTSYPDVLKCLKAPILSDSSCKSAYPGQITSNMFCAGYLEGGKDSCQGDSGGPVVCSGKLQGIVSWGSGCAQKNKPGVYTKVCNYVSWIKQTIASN
Method: To increase expression, the gene copy of the selected clones was amplified by sequentially streaking colonies on Luria agar plates with 25 μg/ml chloramphenicol until the growth rate was similar to growth on Luria agar plates without chloramphenicol. Cultures of the selected variants and controls were grown in 3 ml Luria broth with 25 μg/ml chloramphenicol in 15 ml tubes for ˜10 h. These cultures (30 μl) were then used to inoculate 30 ml of MBD medium in 250 ml baffled shake flasks and grown at 37° C. and 225 rpm for ˜60 h.
For selection of the variants with the best yields, the culture broths were processed as follows. The broth was first activated by mixing 20 ml of broth with 20 ml of 0.25 M glycine buffer (pH 9.3) and the pH was adjusted to 9.0 with 50% NaOH. Then, 2-mercaptoethanol was added to the diluted cultures to a final concentration of 2 mM and the cultures were incubated overnight at room temperature with gentle shaking. The BBIt-AV moiety was then cleaved from the fusion protein by acid/heat treatment, which was accomplished by first adjusting the pH of the activated broth to pH 1.9-2.0 with sulfuric acid, and followed by incubation at 60° C. for 16 hours, with shaking. The BBIt-AV-BCE fusion protein and the BCE catalytic domain are not soluble at pH 2, whereas the free BBI species is soluble. After the cleavage reaction, the insoluble material was removed by centrifugation (5 min. at 3,000 rpm) and the supernatant was analyzed for trypsin inhibitory activity as described above. The BBI activity was also determined for the starting material and for the samples taken after activation. The BCE activity of the starting material was also determined as described above. The BBIt-AV:BCE activity ratios were then calculated for each step in process. The modified BBIt-AVs produced at the highest yields following the acid/heat treatment were selected for further study.

[2] = target: T1, bovine pancreatic trypsin; assay: BBIt-AV:BCE activity ratio, microtiter plate screens (primary, quadruplicate secondary); type: biochemical; settings: single substitution in BBIt-AV, in the presence of reducing agent
Method: The cultures in each master plate were thawed and a pin replicator was used to inoculate a new sterile microtiter plate containing 150 μl of Luria broth with 5 μg/ml chloramphenicol in each well. The plates were grown for ˜10 hrs in a humidified and aerated box as described above. For controls, the cultures in two wells were replaced with BBI and BBI-AV cultures that had been grown concurrently in 15 ml culture tubes (5 ml of Luria broth with 5 μg/ml chloramphenicol). After the cultures were grown, the plate was used to inoculate two duplicate 96-well filter plates (Millipore, MSGV2210) containing 150 μl of MBD medium (Vogtentanz et al., 2007) with 5 μg/ml chloramphenicol in each well by using a pin replicator. The duplicate plates were grown for ˜14 hours (as above, with plastic spacers placed between the stacked plates to allow for efficient air flow around the plates) and then 2-mecaptoethanol was added to each well in one of the plates to a final concentration of 2 mM. The plates were then grown for an additional ˜46 hours. The 96-well filter plates containing the culture broth (with or without added 2-mecaptoethanol) were then assayed for BBI and BCE activity.
Libraries were analyzed using dilutions of cultures grown in 96-well plates. Typically, the culture broth from each well was diluted (200 fold) in Assay Buffer (100 mM Tris pH 8.6, 0.005% Tween 80) and transferred to a second microtiter plate (CoStar 9017, Corning, Inc., Corning, N.Y.). Then, 20 μl of the diluted samples were transferred to a third microtiter plate. A standard curve was created by adding 20, 10, 5 or 2.5 μl of the diluted sBBI (SEQ ID NO:13) control culture to empty wells. Then, 80 μL of 50 ng/ml trypsin (bovine pancreatic trypsin, Worthington Biochemical Corp., Lakewood, N.J.) (prepared from a 1 mg/mL stock solution diluted into Assay Buffer) was added to each well of the plate. The reactions were mixed and incubated 15 min at room temperature. After the incubation, 100 μL of 0.5 mg/ml trypsin substrate (succinyl-Ala-Ala-Pro-Arg-para-nitroanilide, Bachem Bioscience, Inc., King of Prussia, Pa.), diluted in Assay Buffer from a 100 mg/ml solution in DMSO, was added to each well, mixed, and the absorbance at 405 nm was monitored for 15 min, with 1 time point recorded every 12 sec using a Spectra Max 250 (Molecular Devices). The data points were used to determine the rate for each reaction. The standard curve was generated by plotting the reaction rate versus the BBI volume and was fitted to a four-parameter equation. All data fitting was done using software supplied by the manufacturer (Molecular Devices Corp., Sunnyvale, Calif.). The activity of each BBIt-AV variant was calculated from the standard curve. Thus, the activities of all modified variant proteins were determined relative to the activity in the sBBI control (BBI-WT) culture.
The concentration of BCE was determined by an activity assay using purified BCE as a standard as described above and by (Vogtentanz et al. 2007). For the analysis of libraries grown in 96-well microtiter plates, 20 μl of culture broth were transferred to each well of a new microtiter plate. A standard curve was created by adding 20, 10, 5 or 2.5 μl of the diluted BBI-WT control culture to these empty wells. Then, 180 μl of the BCE substrate (0.25 μg/ml in Assay Buffer), 4-nitrophenyl β-D-cellobioside (Sigma, St. Louis, Mo.), was added to the plate. The plate was mixed and the absorbance at 405 nm monitored for 15 min, with 1 time point recorded every 12 s using a Spectra Max 250 (Molecular Devices Corp., Sunnyvale, Calif.). The data points were used to determine the rate for each reaction. The standard curve was generated by plotting rate versus culture volume and was fit to a quadratic curve. The BCE concentration in each variant culture was determined relative to the standard control culture. […]

B1: M27A: BBIt-AV (SEQ ID NO:187) with single substitution M27A (protein)
chain: DDESSKPCCDQCACTKSNPPQCRCSDARLNSCHSACKSCACYNLYGWTCFCVDITDFCYEPCKPSE
modifications: synthetic BBIt-AV sequence
[1]
  yield after acid/heat treatment, better than V52L: about 40%
[1]; single substitutions in BBIt-AV
  activation level (BBIt-AV:BCE activity ratio after reducing agent): activate to similar levels

B2: F50V: BBIt-AV (SEQ ID NO:187) with single substitution F50V (protein)
chain: B1 chain with A27M, F50V
modifications: synthetic BBIt-AV sequence
[2]
  relative activity of the amino acid substitution (BBI:BCE activity ratio vs BBIt-AV), amino acid present in BBIdb-AV: V (+)

B3: T55K: BBIt-AV (SEQ ID NO:187) with single substitution T55K (protein)
chain: B1 chain with A27M, T55K
modifications: synthetic BBIt-AV sequence
[2]
  relative activity of the amino acid substitution (BBI:BCE activity ratio vs BBIt-AV), amino acid present in BBIdb-AV: K (−)

B4: I54M: BBIt-AV (SEQ ID NO:187) with single substitution I54M (protein)
chain: B1 chain with A27M, I54M
modifications: synthetic BBIt-AV sequence
[2]
  relative activity of the amino acid substitution (BBI:BCE activity ratio vs BBIt-AV), amino acid present in BBIdb-AV: M (−)

B5: S38N: BBIt-AV (SEQ ID NO:187) with single substitution S38N (protein)
chain: B1 chain with A27M, S38N
modifications: synthetic BBIt-AV sequence
[1]
  BBIt-AV yield after acid/heat treatment relative to unmodified BBIt-AV: improved yields after acid/heat treatment

B6: S65E: BBIt-AV (SEQ ID NO:187) with single substitution S65E (protein)
chain: B1 chain with A27M, S65E
modifications: synthetic BBIt-AV sequence
[1]
  BBIt-AV yield after acid/heat treatment relative to unmodified BBIt-AV: improved yields after acid/heat treatment

B7: T55N: BBIt-AV (SEQ ID NO:187) with single substitution T55N (protein)
chain: B1 chain with A27M, T55N
modifications: synthetic BBIt-AV sequence
[2]
  relative activity of the amino acid substitution (BBI:BCE activity ratio vs BBIt-AV), amino acid present in BBIsb3-AV: N (+/−)

B8: K37S: BBIt-AV (SEQ ID NO:187) with single substitution K37S (protein)
chain: B1 chain with A27M, K37S
modifications: synthetic BBIt-AV sequence
[2]
  relative activity of the amino acid substitution (BBI:BCE activity ratio vs BBIt-AV), amino acid present in BBIdb-AV: S (+/−)

B9: V52F: BBIt-AV (SEQ ID NO:187) with single substitution V52F (protein)
chain: B1 chain with A27M, V52F
modifications: synthetic BBIt-AV sequence
[2]
  relative activity of the amino acid substitution (BBI:BCE activity ratio vs BBIt-AV), amino acid present in BBItc-AV: F (+/−)

B10: I54T: BBIt-AV (SEQ ID NO:187) with single substitution I54T (protein)
chain: B1 chain with A27M, I54T
modifications: synthetic BBIt-AV sequence
[2]
  relative activity of the amino acid substitution (BBI:BCE activity ratio vs BBIt-AV), amino acid present in BBIsb3-AV: T (−)****

B11: Q11G: BBIt-AV (SEQ ID NO:187) with single substitution Q11G (protein)
chain: B1 chain with Q11G, A27M
modifications: synthetic BBIt-AV sequence
[1]
  BBIt-AV yield after acid/heat treatment relative to unmodified BBIt-AV: improved yields after acid/heat treatment

B12: S4V: BBIt-AV (SEQ ID NO:187) with single substitution S4V (protein)
chain: B1 chain with S4V, A27M
modifications: synthetic BBIt-AV sequence
[1]
  BBIt-AV yield after acid/heat treatment relative to unmodified BBIt-AV: improved yields after acid/heat treatment

B13: E60K: BBIt-AV (SEQ ID NO:187) with single substitution E60K (protein)
chain: B1 chain with A27M, E60K
modifications: synthetic BBIt-AV sequence
[2]
  relative activity of the amino acid substitution (BBI:BCE activity ratio vs BBIt-AV), amino acid present in BBIsb3-AV: K (+/−)
  relative activity of the amino acid substitution (BBI:BCE activity ratio vs BBIt-AV), amino acid present in BBItc-AV: K (+/−)

B14: S5P: BBIt-AV (SEQ ID NO:187) with single substitution S5P (protein)
chain: B1 chain with S5P, A27M
modifications: synthetic BBIt-AV sequence
[1]
  BBIt-AV yield after acid/heat treatment relative to unmodified BBIt-AV: improved yields after acid/heat treatment

B15: BBIt-AV-A13I-M27R-L29P-A40K-F50T-V52A: modified variant BBPI, SEQ ID NO:619 (protein)
chain: DPDDESSKPCCDQCICTKSNPPQCRCSDRRPNSCHSACKSCKCYNLYGWTCTCADITDFCYEPCKPSE
modifications: synthetic BBPI variant
[1]
  yield after acid/heat treatment relative to BBIt-AV-A13I-L29P-A40K-F50T-V52A (SEQ ID NO:601): somewhat less

B16: 4D13BBIt-AV: BBIt-AV with 13 amino acid 4D13 insert (SEQ ID NO:389) at the N-terminus, SEQ ID NO:390 (protein)
chain: DDEPSKPCCDPDPDDESSKPCCDQCACTKSNPPQCRCSDMRLNSCHSACKSCACYNLYGWTCFCVDITDFCYEPCKPSE
modifications: synthetic BBI sequence
[1]; relative to unmodified BBIt-AV
  BBIt-AV:BCE activity ratio after acid/heat treatment: higher
